# Test results: paper doi:10.1101/2020.07.24.212647 (bioRxiv, 2020)
# B1: M. tuberculosis E2b catalytic domain (MtE2b_CD) (domain or fragment)
# chain: PDVRPVHGVHARMAEKMTLSHKEIPTAKASVEVICAELLRLRDRFVSAAPEITPFALTLRLLVIALKHNVILNSTWVDSGEGPQVHVHRGVHLGFGAATERGLLVPVVTDAQDKNTRELASRVAELITGAREGTLTPAELRGSTFTVSNFGALGVDDGVPVINHPEAAILGLGAIKPRPVVVGGEVVARPTMTLTCVFDHRVVDGAQVAQFMCELRDLIESPETALLDL
# Molecular target: the molecule itself
# Assay: crystal structure
protein,measurement,value
B1,stoichiometry N,24
